Test [1] deals with Andes virus (ANDV) glycoprotein C, wild type, from virus-like particles (Andes virus strain Chi-7913). Kind of test: sucrose gradient sedimentation.
Test [2] has as its target Puumala virus (PUUV) glycoprotein C ectodomain, soluble GC (residues 659-1106 of GPC) (Puumala virus P360 strain). Kind of test: crystal structure.

Broadly, the stoichiometry N is a count of units in the complex or per binding partner. As to “Andes virus (ANDV) glycoprotein C, wild type, from virus-like particles (natural protein)”, the stoichiometry N in test [1] was 3.

Regarding “Puumala virus (PUUV) glycoprotein C ectodomain, soluble GC (residues 659-1106 of GPC) (domain or fragment)”, the stoichiometry N in test [2] worked out at 3.
